Target: recombinant human interferon beta-1a (human), P01574
Test: SPR; IFN-β immobilised on ProteOn GLH chip by amine coupling; Ca^2+-loaded S100 as analyte (0.25–5 µM S100A1, 0.5–5 µM S100A4/A6, 5 µM other S100); 25 °C; 10 mM HEPES, 150 mM NaCl, 0.01% TWEEN 20, pH 7.4, 1 mM CaCl2; heterogeneous ligand model
Settings: remark: other sources report otherwise

Kd: > 10 µM
B1: recombinant human S100B, P04271 1-92 (natural protein)
chain: MSELEKAMVALIDVFHQYSGREGDKHKLKKSELKELINNELSHFLEEIKEQEVVDKVMETLDNDGDGECDFQEFMAFVAMVTTACHEFFEHE

Source: paper PMC7764042
